Publication PMC9482650, “Quantitative fragmentomics allow affinity mapping of interactomes” (Nature Communications, 2022)

Experiments:
Assay in all cases: holdup assay
Parameters in all cases: key: below the threshold = too weak to quantify, mostly under pKd 3.1 to 4
Settings in all cases: plain residues with an end cap or a label only (N-terminal biotin on a linker: ado-ado)
[1] = molecular target: CASK, O14936
[2] = molecular target: T1, DFNB31_1, Q9P202
T1 sequence (Q9P202 135-233, limits assumed, looked up): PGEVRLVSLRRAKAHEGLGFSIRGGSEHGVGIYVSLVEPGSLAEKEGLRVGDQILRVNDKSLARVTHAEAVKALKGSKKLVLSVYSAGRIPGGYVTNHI

[3] = molecular target: T2, DFNB31_2, Q9P202
T2 sequence (Q9P202 274-371, limits assumed, looked up): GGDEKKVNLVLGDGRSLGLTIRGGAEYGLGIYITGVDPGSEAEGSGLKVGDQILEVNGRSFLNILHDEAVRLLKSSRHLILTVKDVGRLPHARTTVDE

[4] = molecular target: DLG5_1, Q8TDM6
Sequence of DLG5_1, Q8TDM6 (Q8TDM6 617-713): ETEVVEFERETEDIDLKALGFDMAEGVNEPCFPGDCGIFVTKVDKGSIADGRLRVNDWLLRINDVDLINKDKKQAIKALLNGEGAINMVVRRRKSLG

[5] = molecular target: T3, FRMPD1, Q5SYB0
T3 sequence (Q5SYB0 52-145, limits assumed, looked up): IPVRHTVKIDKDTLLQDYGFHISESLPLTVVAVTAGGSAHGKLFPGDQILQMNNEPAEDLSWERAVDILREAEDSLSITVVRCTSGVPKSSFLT

[6] = molecular target: FRMPD2_3, Q68DX3
Sequence of FRMPD2_3, Q68DX3 (Q68DX3 1073-1166): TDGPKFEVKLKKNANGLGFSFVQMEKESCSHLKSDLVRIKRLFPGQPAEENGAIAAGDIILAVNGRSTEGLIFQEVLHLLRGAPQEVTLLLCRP

[7] = molecular target: FRMPD4, Q14CM0
Sequence of FRMPD4, Q14CM0 (Q14CM0 67-160): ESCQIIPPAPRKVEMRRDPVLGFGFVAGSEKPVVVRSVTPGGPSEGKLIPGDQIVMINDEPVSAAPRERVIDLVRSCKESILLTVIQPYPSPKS

[8] = molecular target: GIPC2, Q8TF65
Sequence of GIPC2, Q8TF65 (Q8TF65 112-203): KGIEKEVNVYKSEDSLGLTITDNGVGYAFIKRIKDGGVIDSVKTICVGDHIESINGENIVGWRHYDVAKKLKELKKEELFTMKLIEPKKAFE

[9] = molecular target: T4, GRIP1_2, Q9Y3R0
T4 sequence (Q9Y3R0 145-248, limits assumed, looked up): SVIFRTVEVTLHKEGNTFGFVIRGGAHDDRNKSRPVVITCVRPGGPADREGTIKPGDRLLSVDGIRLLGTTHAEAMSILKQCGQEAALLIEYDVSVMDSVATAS

[10] = molecular target: GRIP2_6, Q9C0E4
Sequence of GRIP2_6, Q9C0E4 (Q9C0E4 648-740): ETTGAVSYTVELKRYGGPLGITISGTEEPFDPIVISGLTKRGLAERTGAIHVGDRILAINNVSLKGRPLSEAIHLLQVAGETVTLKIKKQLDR

[11] = molecular target: Inadl_3, Q8NI35
Sequence of Inadl_3, Q8NI35 (Q8NI35 359-469): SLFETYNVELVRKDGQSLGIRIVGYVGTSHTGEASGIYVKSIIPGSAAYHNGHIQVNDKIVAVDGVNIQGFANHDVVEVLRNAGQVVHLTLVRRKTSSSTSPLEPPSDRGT

[12] = molecular target: T5, LRRC7, Q96NW7
T5 sequence (Q96NW7 1440-1537, limits assumed, looked up): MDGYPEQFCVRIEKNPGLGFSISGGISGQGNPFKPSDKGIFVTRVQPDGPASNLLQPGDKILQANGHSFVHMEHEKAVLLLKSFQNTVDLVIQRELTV

[13] = molecular target: MAGI1_2, Q96QZ7
Sequence of MAGI1_2, Q96QZ7 (Q96QZ7 456-580): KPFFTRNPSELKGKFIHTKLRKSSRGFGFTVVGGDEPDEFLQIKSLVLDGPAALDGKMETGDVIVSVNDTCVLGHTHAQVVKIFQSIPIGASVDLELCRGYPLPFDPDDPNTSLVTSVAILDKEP

[14] = molecular target: T6, MPP2, Q14168
T6 sequence (Q14168 180-250, limits assumed, looked up): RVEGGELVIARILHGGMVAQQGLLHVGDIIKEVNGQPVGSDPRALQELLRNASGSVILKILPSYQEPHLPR

[15] = molecular target: T7, PCLO, Q9Y6V0
T7 sequence (Q9Y6V0 4491-4600, limits assumed, looked up): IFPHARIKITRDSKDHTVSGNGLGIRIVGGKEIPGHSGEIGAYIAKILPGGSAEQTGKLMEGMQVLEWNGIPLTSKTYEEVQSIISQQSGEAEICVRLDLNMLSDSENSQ

[16] = molecular target: T8, PDZD2_2, O15018
T8 sequence (O15018 329-429, limits assumed, looked up): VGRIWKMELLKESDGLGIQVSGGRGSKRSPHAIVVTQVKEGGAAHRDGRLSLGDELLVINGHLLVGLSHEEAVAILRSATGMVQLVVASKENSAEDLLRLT

[17] = molecular target: T9, PDZRN3_1, Q9UPQ7
T9 sequence (Q9UPQ7 244-349, limits assumed, looked up): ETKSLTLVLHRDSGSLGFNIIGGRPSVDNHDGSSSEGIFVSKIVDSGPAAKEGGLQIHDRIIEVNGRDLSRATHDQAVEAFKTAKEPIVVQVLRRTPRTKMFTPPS

[18] = molecular target: T10, PTPN13_1, Q12923
T10 sequence (Q12923 1088-1188, limits assumed, looked up): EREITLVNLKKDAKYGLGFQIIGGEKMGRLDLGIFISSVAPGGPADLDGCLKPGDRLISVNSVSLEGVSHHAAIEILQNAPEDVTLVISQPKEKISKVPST

[19] = molecular target: T11, SNTG1, Q9NSN8
T11 sequence (Q9NSN8 52-150, limits assumed, looked up): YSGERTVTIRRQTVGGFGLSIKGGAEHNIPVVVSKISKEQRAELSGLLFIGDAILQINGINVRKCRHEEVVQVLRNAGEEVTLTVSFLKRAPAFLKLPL

[20] = molecular target: SNX27, Q96L92
[21] = molecular target: T12, SYNJ2BP, P57105
T12 sequence (P57105 8-110, limits assumed, looked up): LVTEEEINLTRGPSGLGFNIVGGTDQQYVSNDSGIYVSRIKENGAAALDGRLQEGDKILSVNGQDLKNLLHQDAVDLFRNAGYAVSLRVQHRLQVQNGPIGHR

[22] = molecular target: T13, TIAM2, Q8IVF5
T13 sequence (Q8IVF5 885-986, limits assumed, looked up): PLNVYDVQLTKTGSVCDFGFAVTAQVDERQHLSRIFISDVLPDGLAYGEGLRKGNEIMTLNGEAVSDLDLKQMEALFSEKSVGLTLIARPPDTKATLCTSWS

[23] = molecular target: T14, TX1BP3, O14907
T14 sequence (O14907 10-122, limits assumed, looked up): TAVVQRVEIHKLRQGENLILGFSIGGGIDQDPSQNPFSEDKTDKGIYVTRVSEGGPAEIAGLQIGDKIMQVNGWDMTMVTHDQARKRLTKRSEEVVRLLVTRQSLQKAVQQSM

Sequence of CASK, O14936 (O14936 487-570): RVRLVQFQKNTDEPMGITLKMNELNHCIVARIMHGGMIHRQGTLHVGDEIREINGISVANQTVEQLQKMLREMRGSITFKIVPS

WRSKRTDTLL [RAMP3, O60896]
pKd [1]: below the threshold
pKd [2]: 3.74
pKd [3]: below the threshold
pKd [4]: below the threshold
pKd [5]: below the threshold
pKd [6]: below the threshold
pKd [7]: 4.7
pKd [8]: below the threshold
pKd [9]: below the threshold
pKd [10]: below the threshold
pKd [11]: below the threshold
pKd [12]: below the threshold
pKd [13]: 4.43
pKd [14]: below the threshold
pKd [15]: below the threshold
pKd [16]: 3.52
pKd [17]: 3.73
pKd [18]: below the threshold
pKd [19]: below the threshold
pKd [20]: 4.31
pKd [21]: 3.84
pKd [22]: below the threshold
pKd [23]: 4.13

QELLEYETTV [XKR7, Q5GH72]
pKd [1]: below the threshold
pKd [2]: 4.2
pKd [3]: below the threshold
pKd [4]: 3.69
pKd [5]: below the threshold
pKd [6]: 3.63
pKd [7]: below the threshold
pKd [8]: 4.38
pKd [9]: below the threshold
pKd [10]: 3.55
pKd [11]: 4.63
pKd [12]: below the threshold
pKd [13]: 3.6
pKd [14]: below the threshold
pKd [15]: below the threshold
pKd [16]: 5.17
pKd [17]: 4.33
pKd [18]: below the threshold
pKd [19]: 5.14
pKd [20]: 5.77
pKd [21]: 4.98
pKd [22]: below the threshold
pKd [23]: 3.92

REVVMRVTTV [MARCHF9, Q86YJ5]
pKd [1]: 3.5
pKd [2]: 3.98
pKd [3]: 3.6
pKd [4]: below the threshold
pKd [5]: below the threshold
pKd [6]: below the threshold
pKd [7]: below the threshold
pKd [8]: below the threshold
pKd [9]: below the threshold
pKd [10]: below the threshold
pKd [11]: 3.94
pKd [12]: below the threshold
pKd [13]: 4.84
pKd [14]: below the threshold
pKd [15]: below the threshold
pKd [16]: 4.37
pKd [17]: 3.81
pKd [18]: below the threshold
pKd [19]: 4.89
pKd [20]: 5.46
pKd [21]: 4.82
pKd [22]: 3.85
pKd [23]: 4.61

FEEEAEEEVA [TUBB4B, P68371]
pKd [1]: below the threshold
pKd [2]: below the threshold
pKd [3]: below the threshold
pKd [4]: below the threshold
pKd [5]: below the threshold
pKd [6]: below the threshold
pKd [7]: below the threshold
pKd [8]: below the threshold
pKd [9]: below the threshold
pKd [10]: below the threshold
pKd [11]: below the threshold
pKd [12]: below the threshold
pKd [13]: below the threshold
pKd [14]: 3.77
pKd [15]: below the threshold
pKd [16]: below the threshold
pKd [17]: below the threshold
pKd [18]: below the threshold
pKd [19]: below the threshold
pKd [20]: below the threshold
pKd [21]: below the threshold
pKd [22]: 3.74
pKd [23]: 3.8

PDGEMMEVLI [AMOTL1, Q8IY63]
pKd [1]: below the threshold
pKd [2]: below the threshold
pKd [3]: below the threshold
pKd [4]: below the threshold
pKd [5]: below the threshold
pKd [6]: below the threshold
pKd [7]: below the threshold
pKd [8]: below the threshold
pKd [9]: below the threshold
pKd [10]: 3.47
pKd [11]: 5.08
pKd [12]: below the threshold
pKd [13]: below the threshold
pKd [14]: below the threshold
pKd [15]: below the threshold
pKd [16]: 3.77
pKd [17]: below the threshold
pKd [18]: below the threshold
pKd [19]: 3.63
pKd [20]: below the threshold
pKd [21]: below the threshold
pKd [22]: 3.86
pKd [23]: below the threshold

VISERNSTTV [C3AR1, Q16581]
pKd [1]: below the threshold
pKd [2]: below the threshold
pKd [3]: below the threshold
pKd [4]: below the threshold
pKd [5]: below the threshold
pKd [6]: below the threshold
pKd [7]: below the threshold
pKd [8]: below the threshold
pKd [9]: below the threshold
pKd [10]: below the threshold
pKd [11]: below the threshold
pKd [12]: below the threshold
pKd [13]: 4.4
pKd [14]: below the threshold
pKd [15]: below the threshold
pKd [16]: 4.55
pKd [17]: below the threshold
pKd [18]: below the threshold
pKd [19]: below the threshold
pKd [20]: 4.57
pKd [21]: 4.68
pKd [22]: below the threshold
pKd [23]: below the threshold
